Measurements published in article PMC8948278 (2022).

Target: Recombinant SARS-CoV-2 S trimer protein (ACRO Biosystems SPN-C52H9) (SARS-CoV-2, UniProt P0DTC2)
Test: SPR

B1: KIH format bivalent MW01 (MW01/KIH) (antibody, V domains shown)
VH: EVQLVQSGAEVKKPGSSVKVSCKASGGTFSSFSISWVRQAPGQGLEWMGRIIPVLGIANYAQEVQGRVTITADKSTSTAYMELSSLRSEDTAVYFCTTDRFVEPATGPFFDYWGQGTLVTVSS
VL: EIVMTQSPATLSVSPGERATLSCRASQSVSSNLAWYQQKPGQAPRLLIYGASTRATGIPARFSGSGSGTEFTLTISSLQSEDFAVYYCQQYSNWLTFGGGTKVEIK
- koff: 0.000408 s⁻¹
